“Also recorded” adds a separate entry of the source. Like-named read-outs stand apart in the source and are kept apart here.

For data set [1] the following is noted: cited from earlier work; for T1/2 (half-life, deamidation): buffer.
In data set [2] the test system is decapeptide RCNSGRFNGG-NH2. The data set can be described thus: Decapeptide accelerated stability test, potency of intact peptide by HPLC. It is filed as physicochemical. Here is the method: To begin with, a decapeptide was synthesized by request at the Protein Facility of the Iowa State University Office of Biotechnology, using standard peptide synthesis methodology.
Samples containing this decapeptide were prepared under eight different conditions at two different pH values, pH 7 and 4. […] The preparation of these samples is now described. The ratios indicated are molar ratios of organic anion to decapeptide.
Into a sterile 15 mL plastic centrifuge tube (Corning Incorporated, Corning, N.Y.) was placed 0.0021 g decapeptide (Iowa State University, Ames, Iowa) and 7.0 g sterile water (Spectrum Chemicals Mfg. Corp., Gardena, Calif.). The pH was adjusted using 1.0N HCl (Spectrum Chemicals Mfg. Corp., Gardena, Calif.) to a pH of 4. Into a new 15 mL plastic centrifuge tube was placed 3.5 mL of a pH 4 solution. The pH was adjusted using only the necessary amount of 1.0N NaOH (Spectrum Chemicals Mfg. Corp., Gardena, Calif.) to a final pH of 7.
(anion:asparaginyl molar ratio). […] Into a new 15 mL plastic centrifuge tube was placed 3.5 mL of a pH 4 solution. The pH was adjusted using only the necessary amount of 1.0N NaOH to a final pH of 7.
(§1) Into a new 15 mL plastic centrifuge tube was placed 3.5 mL of a pH 4 solution. The pH was adjusted using only the necessary amount of 1.0N NaOH to a final pH of 7.
as §1, §1
Into a sterile 1.5 mL microcentrifuge tube was placed a 0.5 g portion of each sample condition and were placed at −18° C. This was the initial sample. The remaining pH 4 samples were placed at 65° C. until completion of the experiment. The remaining pH 7 samples were placed at 40° C. until completion of the experiment. […] This was the day 1 sample. The frozen initial and day 1 samples were thawed to room temperature, and assayed using HPLC.
The samples at the various timepoints were then analyzed with HPLC using the following conditions.
System: Schimadzu SCL-10A VP with diode array detector
Column: Phenomenex C18 Luna 5 um, 250×4.6 mm
Mobile Phase: Isocratic 90% (0.1%) TFA in water, 10% (0.08%) TFA in acetonitrile
The potency (mg/mL of intact peptide) was determined by integrating under this peak (performed by the instrument), and normalizing according to a standard run of the decapeptide.
The sample stressing and HPLC were applied as above.
(anion:asparaginyl ratio). Into a sterile 15 mL plastic centrifuge tube was placed 0.0021 g decapeptide, 0.0029 g N-acetyl-D-tryptophan (MP Biomedicals, Solon, Ohio) and 7.0 g sterile water. The pH was adjusted using 1.0N HCl to a pH of 4. Into a new 15 mL plastic centrifuge tube was placed 3.5 mL of a pH 4 solution. The pH was adjusted using only the necessary amount of 1.0N NaOH to a final pH of 7. Since the molar ratio of acetyltryptophan to decapeptide is 6:1, and each decapeptide has two asparaginyl residues, the molar ratio of NAT to asparagine is 3:1.
The pH was adjusted using only the necessary amount of 1.0N NaOH to a final pH of 7.

The conditions of data set [3]: accepted approximate value, dilute aqueous solution; cited from earlier work.
Where [4] appears, read: aqueous solution, pH 7.4, 37° C., Tris-HCl buffer.
The mark [5] stands for this setting: pH 7, 24 hours at 40° C., molar ratio anion:Asn 3.

With 1-Antitrypsin (1QLP): human protein, in data set [1] (setting [4]), the “T1/10 (time to 10% degradation by deamidation)” value is on record as 6.1 days.
In the case of `Cl` [Hydrochloric, hydrochloric acid], the potency remaining result is given as “less than 7%” in data set [2] (pH 7, 24 hours at 40° C., HCl control, no organic anion, listed as HCl) and “under 7%” in data set [2] (pH 7, 24 hours at 40° C., HCl control, no organic anion, listed as hydrochloric acid control).
`CC(=O)N[C@H](Cc1c[nH]c2ccccc12)C(=O)O` [N-acetyltryptophanate, N-acetyl-D-tryptophan]: the potency remaining in data set [2] (pH 4, stressed at 65° C., anion:Asn 3:1) came out at 74%. The Relative potency is 1.028 in data set [2] (setting [5]) and “completely retained; also recorded: no detectable degradation” in data set [2] (pH 7, 24 hours at 40° C., molar ratio anion:Asn 3, listed as N-acetyltryptophan). The “pKa (first listed)” value in data set [3] is 3.37.
With `O=C1NS(=O)(=O)c2ccccc21` [Saccharin, 2,3-dihydro-3-oxobenzisosulfonazole], the Relative potency in data set [2] (pH 4, 24 hours at 65° C., anion:Asn 10:1) is on record as 87%; in data set [2] (pH 7, 24 hours at 40° C., molar ratio anion:Asn 1), 0.080; in data set [2] (pH 7, 24 hours at 40° C., molar ratio anion:Asn 1, listed as saccharin), “much less enhancement”; in data set [2] (setting [5]), 0.008; in data set [2] (pH 7, 24 hours at 40° C., molar ratio anion:Asn 10), 0.523; in data set [2] (pH 7, 24 hours at 40° C., molar ratio anion:Asn 10, listed as saccharin), “enhanced stability”.
As to `C[C@H](CCC(=O)O)[C@H]1CC[C@H]2[C@@H]3CC[C@@H]4C[C@H](O)CC[C@]4(C)[C@H]3C[C@H](O)[C@]12C` [deoxycholic, deoxycholic acid], the “pKa (first listed)” value in data set [3] was 5.7.
For the compound `C[C@H](CCC(=O)NCC(=O)O)[C@H]1CC[C@H]2[C@@H]3[C@H](O)C[C@@H]4C[C@H](O)CC[C@]4(C)[C@H]3C[C@H](O)[C@]12C` [glycocholic], the “pKa (first listed)” value in data set [3] is recorded as 3.6.
For the compound `CC(O)C(=O)O` (stereo not shown) [lactic, lactic acid], in data set [3], the “pKa (first listed)” value is recorded as 3.95.
Take `O=C(O)/C=C\C(=O)O` [maleic]: the “pKa (first listed)” value in data set [3] is listed as 3.9.
In the case of `CCCCCCCC/C=C\CCCCCCCC(=O)O` [oleic], the “pKa (first listed)” value in data set [3] is given as 4.5.
For -Chymotrypsinogen (1CGI): human protein, in data set [1] (setting [4]), the “T1/10 (time to 10% degradation by deamidation)” value is on record as 2.4 days.
In the case of Angiogenin (1A4Y): human protein, in data set [1] (setting [4]), the “T1/10 (time to 10% degradation by deamidation)” value was 3.2 days.
Take Annexin V (1ANX): human protein: the “T1/10 (time to 10% degradation by deamidation)” value in data set [1] (setting [4]) is reported as 33 days.
“Apoptosis regulator bax (1F16): human protein”: in data set [1] (setting [4]), the “T1/10 (time to 10% degradation by deamidation)” value was 26 days.
As for “Argininosuccinate lyase (1AOS): human protein”, the “T1/10 (time to 10% degradation by deamidation)” value in data set [1] (setting [4]) is reported as 13 days.
Consider “Carbonic anhydrase I (1HCB): human protein”, for which the “T1/10 (time to 10% degradation by deamidation)” value in data set [1] (setting [4]) is recorded as 6.8 days.
On to Creatine kinase ( 1QK1): human protein, for which, in data set [1] (pH 7.4), the “T1/2 (half-life, deamidation)” value is reported as 84 days and the “T1/10 (time to 10% degradation by deamidation)” value is listed as 13 days.
On to Cyclophilin A (1AWQ): human protein, for which the “T1/10 (time to 10% degradation by deamidation)” value in data set [1] (setting [4]) was 1.3 days.
With “D-Glyceraldehyde-3-phosphate dehydrogenase (3GPD): human protein”, in data set [1] (pH 7.4), the “T1/2 (half-life, deamidation)” value is reported as 4.2 days and the “T1/10 (time to 10% degradation by deamidation)” value is 0.64 days.
“Fibroblast growth factor (2AFG): human protein”: the “T1/10 (time to 10% degradation by deamidation)” value in data set [1] (setting [4]) was 3.2 days.
As to “GTP-binding protein (1DOA): human protein”, in data set [1] (setting [4]), the “T1/10 (time to 10% degradation by deamidation)” value is 6.8 days.
Regarding Growth hormone (1HGU): human protein, the “T1/10 (time to 10% degradation by deamidation)” value in data set [1] (setting [4]) was 7.8 days.
As to “Growth hormone receptor (1A22): human protein”, in data set [1] (setting [4]), the “T1/10 (time to 10% degradation by deamidation)” value is given as 0.36 days.
For the compound “Homeobox protein PAX-6 (6PAX): human protein”, in data set [1] (setting [4]), the “T1/10 (time to 10% degradation by deamidation)” value is reported as 5.9 days.
Turning to Insulin (2HIU): human protein, in data set [1] (pH 7.4), the “T1/2 (half-life, deamidation)” value was 260 days and the “T1/10 (time to 10% degradation by deamidation)” value is given as 40 days.
Interleukin-1 (2I1B): human protein: the “T1/10 (time to 10% degradation by deamidation)” value in data set [1] (setting [4]) was 43 days.
On to Interleukin-4 (2CYK): human protein, for which the “T1/10 (time to 10% degradation by deamidation)” value in data set [1] (setting [4]) is given as 41 days.
Consider Interleukin-6 (1IL6): human protein, for which, in data set [1] (setting [4]), the “T1/10 (time to 10% degradation by deamidation)” value was 8.5 days.
As for Interleukin-8 (1IL8): human protein, in data set [1] (setting [4]), the “T1/10 (time to 10% degradation by deamidation)” value is on record as 14 days.
Take Interleukin-10 (2ILK): human protein: the “T1/10 (time to 10% degradation by deamidation)” value in data set [1] (setting [4]) is 3.8 days.
Take “Intestinal fatty acid binding protein (3IFB): human protein”: in data set [1] (pH 7.4), the “T1/2 (half-life, deamidation)” value is recorded as 7.6 days and the “T1/10 (time to 10% degradation by deamidation)” value is listed as 1.2 days.
As to Lysophospholipase (1LCL): human protein, the “T1/10 (time to 10% degradation by deamidation)” value in data set [1] (setting [4]) was 2.4 days.
On to Malic enzyme (1EFK): human protein, for which, in data set [1] (pH 7.4), the “T1/2 (half-life, deamidation)” value is 140 days and the “T1/10 (time to 10% degradation by deamidation)” value is on record as 21 days.
On to “Mitogen-activated protein kinase P38 (1WFC): human protein”, for which, in data set [1] (setting [4]), the “T1/10 (time to 10% degradation by deamidation)” value is recorded as 17 days.
As for “N-acetylgalactosamine-4-sulfatase (1FSU): human protein”, the “T1/10 (time to 10% degradation by deamidation)” value in data set [1] (setting [4]) was 0.93 days.
Turning to “NAD(P)H dehydrogenase (1QBG): human protein”, the “T1/10 (time to 10% degradation by deamidation)” value in data set [1] (setting [4]) is 53 days.
In the case of “Peptidyl-prolyl cis-trans isomerase (1F8A): human protein”, in data set [1] (setting [4]), the “T1/10 (time to 10% degradation by deamidation)” value was 0.36 days.
Take “Platelet factor 4-HPF4 (1RHP): human protein”: the “T1/10 (time to 10% degradation by deamidation)” value in data set [1] (setting [4]) is recorded as 35 days.
On to Proinsulin (1EFE): human protein, for which the “T1/10 (time to 10% degradation by deamidation)” value in data set [1] (setting [4]) is given as 17 days.
As to Stem cell factor (1EXZ): human protein, the “T1/10 (time to 10% degradation by deamidation)” value in data set [1] (setting [4]) is 27 days.
As for “Transforming growth factor-two (1KLA): human protein”, the “T1/10 (time to 10% degradation by deamidation)” value in data set [1] (setting [4]) is listed as 70 days.
For “Triose phosphate isomerase (1HTI): human protein”, the “T1/10 (time to 10% degradation by deamidation)” value in data set [1] (setting [4]) is given as 7.9 days.

The record behind these values is US9394339B2, “Stabilized formulations of peptides and proteins protecting against non-enzymatic degradation” (Lyotropic Therapeutics, Inc., priority 2007, dated 2016).
